{"source": "patent US20210332360", "experiment_in_all_cases": "flow", "key": {"[1]": {"target": "T1, DC-SIGN (DC-SIGNR/CD299) (Homo sapiens) (UniProt Q9H2X3)", "T1 sequence": "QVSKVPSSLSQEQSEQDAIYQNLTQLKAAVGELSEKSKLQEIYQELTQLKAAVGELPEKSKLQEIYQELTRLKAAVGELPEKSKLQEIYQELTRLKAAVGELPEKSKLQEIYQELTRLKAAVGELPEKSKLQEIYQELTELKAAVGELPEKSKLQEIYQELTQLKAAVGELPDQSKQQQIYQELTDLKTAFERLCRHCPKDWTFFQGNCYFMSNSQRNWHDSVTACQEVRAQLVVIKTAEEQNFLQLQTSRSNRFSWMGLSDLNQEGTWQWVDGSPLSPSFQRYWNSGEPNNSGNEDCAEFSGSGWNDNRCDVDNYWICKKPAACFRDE", "details": "after the 5' primer region all dT replaced by 4 (alpha-D-mannose-triazole-modified C8-alkyne-dU); particle-displayed; SB with Mg, Ca, Mn"}, "[2]": {"target": "T2, DC-SIGN (SIGNR1/CD209b) (Mus musculus) (UniProt Q8CJ91)", "T2 sequence": "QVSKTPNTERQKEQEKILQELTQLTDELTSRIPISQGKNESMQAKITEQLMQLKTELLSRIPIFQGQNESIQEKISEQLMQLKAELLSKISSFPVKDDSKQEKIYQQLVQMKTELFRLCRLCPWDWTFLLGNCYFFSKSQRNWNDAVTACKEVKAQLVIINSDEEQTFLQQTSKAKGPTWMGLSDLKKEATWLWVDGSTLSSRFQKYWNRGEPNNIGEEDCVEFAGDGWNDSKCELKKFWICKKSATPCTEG", "details": "after the 5' primer region all dT replaced by 4 (alpha-D-mannose-triazole-modified C8-alkyne-dU); counter-target; 3.5-fold weaker than human"}, "[3]": {"target": "T3, Pisum sativum agglutinin (PSA) (Pisum sativum) (UniProt P02867+P02867)", "T3 sequence 1": "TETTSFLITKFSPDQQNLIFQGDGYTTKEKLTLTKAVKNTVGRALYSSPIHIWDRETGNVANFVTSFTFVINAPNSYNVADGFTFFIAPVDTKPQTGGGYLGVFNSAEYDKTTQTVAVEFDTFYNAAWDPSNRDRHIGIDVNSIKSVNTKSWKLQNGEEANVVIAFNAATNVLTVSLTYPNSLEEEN", "T3 sequence 2": "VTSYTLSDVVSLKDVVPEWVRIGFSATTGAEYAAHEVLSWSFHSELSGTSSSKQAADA", "details": "counter-target"}}, "data": [{"sequence": "GATCCCAGTCCGAAGTAATCCAAGGGTAATTGGGAAATAAGGATGGGGTAATATGCAACCCTTGTGCAAACGGCTATAGG [D1]", "values": [{"measurement": "Kd", "setting": "[1]", "value": 3.6, "unit": "nM"}, {"measurement": "Kd", "setting": "[2]", "value": 12.5, "unit": "nM"}]}, {"sequence": "GATCCCAGTCCGAAGTAATCGTTGCATCTGCACGACTGGTGAGCTTGAGTGGCAGAAGAACTTGTGCAAACGGCTATAGG [3-1]", "values": [{"measurement": "Kd", "setting": "[3]; after the 5' primer region (GATCCCAGTCCGAAGTAATC, natural) all dT replaced by 4 (alpha-D-mannose-triazole-modified C8-alkyne-dU) and all dC by 2 (5-formyl-dC)", "value": "> 1000", "unit": "nM"}]}, {"sequence": "GATCCCAGTCCGAAGTAATCGTTGCATCTGCACGACTGGTGAGCTTGAGTGGCAGAAGAACTTGTGCAAACGGCTATAGG [3-1m]", "values": [{"measurement": "Kd", "setting": "[3]; after the 5' primer region all dT replaced by 4 (alpha-D-mannose-triazole-modified C8-alkyne-dU), natural dC", "value": "> 1000", "unit": "nM"}]}]}
